Results: PMC8192741, “The Komagataeibacter europaeus GqqA is the prototype of a novel bifunctional N-Acyl-homoserine lactone acylase with prephenate dehydratase activity” (Scientific Reports, 2021)

T1: SeGqqA (Komagataeibacter europaeus, UniProt A0A0M0ELU2, DEL86-170)
T1 construct: gene gqqA; selenomethionine-substituted GqqA; residues 86-170 lost by proteolysis during crystallization (not engineered; termini V85 and His171); made as full length with C-terminal TEV site and His6 tag in E. coli BL21(DE3)
T1 sequence (A0A0M0ELU2 with tags, fused parts or gaps DEL86-170): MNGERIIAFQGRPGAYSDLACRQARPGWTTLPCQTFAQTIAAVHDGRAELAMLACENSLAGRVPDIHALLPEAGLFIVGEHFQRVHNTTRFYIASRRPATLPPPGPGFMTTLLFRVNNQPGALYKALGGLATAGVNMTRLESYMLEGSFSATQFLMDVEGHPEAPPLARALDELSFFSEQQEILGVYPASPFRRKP

B1: GqqA (enzyme, Komagataeibacter europaeus CECT 8546)
chain: MNGERIIAFQGRPGAYSDLACRQARPGWTTLPCQTFAQTIAAVHDGRAELAMLACENSLAGRVPDIHALLPEAGLFIVGEHFQRVEHCLLGIPGSTLADARRIHTHPVAMAQVRGIITELGLDPVVEFDTAGAAEMVREWGRKEDVAVASALAAELNGLEILRRNVEDATHNTTRFYIASRRPATLPPPGPGFMTTLLFRVNNQPGALYKALGGLATAGVNMTRLESYMLEGSFSATQFLMDVEGHPEAPPLARALDELSFFSEQQEILGVYPASPFRRKP
notes: GqqA, quorum quenching N-acyl-homoserine lactone acylase / prephenate dehydratase of Komagataeibacter europaeus CECT 8546; 281 amino acid residues, about 30.5 kDa; PDT domain 1-180, ACT domain 194-281; the gene was integrated in pET21a; no removal of the tag by TEV is described; also called native GqqA; GqqA wt; source: E. coli BL21 (DE3), purified (Ni-NTA, size-exclusion chromatography)

What was measured:
[1] = molecular target: T2, GqqA (Komagataeibacter europaeus, UniProt A0A0M0ELU2); test: X-ray crystal structure, […] Å; assay type: binding; settings: ACT regulatory domain at dimer interface, one per monomer; co-purified, not added
T2 construct: E. coli BL21(DE3); homodimer of 61 kDa; primers encode N-terminus MNGERIIA and C-terminus LRRKP; PDT domain 1-180, ACT domain 194-281

[2] = molecular target: T1, SeGqqA; test: X-ray crystal structure (SAD), […] Å; assay type: binding; settings: ACT regulatory domain; not added
[3] = molecular target: the molecule itself; test: dynamic light scattering; GqqA 3.6 mg/ml in 0.1 M K2HPO4 pH 5.0, 150 mM NaCl, 20 °C; hydrodynamic radius 3.9 ± 0.1 nm; long-term measurement at room temperature for 4 days
[4] = substrate: CCCCCCCC(=O)CC(=O)N[C@H]1CCOC1=O; test: purified protein; assay type: biochemical, Komagataeibacter europaeus; settings: 5 mM EPPS pH 8.0, 0.5 mM Phenol Red, 30 °C, substrate 0-65 mM
[5] = substrate: CCCC(=O)CC(=O)N[C@H]1CCOC1=O; test: purified protein; assay type: biochemical, Komagataeibacter europaeus; settings: 5 mM EPPS pH 8.0, 0.5 mM Phenol Red, 30 °C, substrate 0-65 mM
[6] = substrate: CCCCCC(=O)CC(=O)N[C@H]1CCOC1=O; test: purified protein; assay type: biochemical, Komagataeibacter europaeus; settings: 5 mM EPPS pH 8.0, 0.5 mM Phenol Red, 30 °C, substrate 0-65 mM
[7] = substrate: CCCCCCCCCC(=O)CC(=O)N[C@H]1CCOC1=O; test: purified protein; assay type: biochemical, Komagataeibacter europaeus; settings: 5 mM EPPS pH 8.0, 0.5 mM Phenol Red, 30 °C, substrate 0-65 mM

| Molecule | X-ray crystal structure, 2.5 Å [1] | X-ray crystal structure (SAD), 1.7 Å [2] | stoichiometry N [3] | Km [4] [mM] | Vmax [4] [µmol/min/mg] | Vmax/Km [4] [µL/min/mg] | Km [5] [mM] | Vmax [5] [µmol/min/mg] | Vmax/Km [5] [µL/min/mg] | Km [6] [mM] | Vmax [6] [µmol/min/mg] | Vmax/Km [6] [µL/min/mg] | Km [7] [mM] | Vmax [7] [µmol/min/mg] | Vmax/Km [7] [µL/min/mg] |
| --- | --- | --- | --- | --- | --- | --- | --- | --- | --- | --- | --- | --- | --- | --- | --- |
| N[C@@H](Cc1ccccc1)C(=O)O [L-Phe] | within the dimer interface we identified two L-Phe molecules | L-Phe is also bound in the truncated SeGqqA. |  |  |  |  |  |  |  |  |  |  |  |  |  |
| B1 |  |  | 2 | 2.36 ± 0.35 | 152 | 64500 | 6.89 ± 0.15 | 109 | 15900 | 4.87 ± 0.12 | 117 | 24100 | 16.7 ± 0.5 | 13.8 | 820 |
